The record followed here is doi:10.1101/2023.04.22.537891.

The target of this series is T1, TaNAC016-3A (Triticum aestivum, UniProt A0A3B6EBU1 1-353).
T1 sequence: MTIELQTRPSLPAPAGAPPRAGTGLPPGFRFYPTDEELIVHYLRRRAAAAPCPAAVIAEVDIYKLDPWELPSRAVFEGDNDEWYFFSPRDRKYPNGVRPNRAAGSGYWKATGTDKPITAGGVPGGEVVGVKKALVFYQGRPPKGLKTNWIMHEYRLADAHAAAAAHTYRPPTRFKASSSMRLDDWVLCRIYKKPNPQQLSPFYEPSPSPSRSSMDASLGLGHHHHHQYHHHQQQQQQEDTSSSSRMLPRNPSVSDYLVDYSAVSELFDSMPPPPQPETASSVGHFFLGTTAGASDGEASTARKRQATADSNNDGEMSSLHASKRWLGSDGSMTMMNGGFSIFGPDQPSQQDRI
The series can be described thus: EMSA. In general terms: In EMSA bound probe runs differently from free probe, usually more slowly.

B1: proTaPAO-4B EMSA probe (PAOsite2) (dsDNA)
DNA 1: AAGGATGGCCGGCACTTACGCAACCTGTCCTTAGACCCCCACAGAAC
DNA 2: GTTCTGTGGGGGTCTAAGGACAGGTTGCGTAAGTGCCGGCCATCCTT
As for B1, the binding result is “binds”.
